Assay results reported in US20150203575A1 (Genentech, published 2015).

How the values were obtained:
Experiment in all cases: cDNA expression library screen with PILRα-AP supernatant on COS7 transfectants; positive clones further analysed by FACS
ETBR expressed on cells = target: T1, ETBR expressed on cells (human, UniProt P24530 27-442)
T1 construct: Clone of the Origene human cDNA library; also called Endothelin receptor type B
T1 sequence: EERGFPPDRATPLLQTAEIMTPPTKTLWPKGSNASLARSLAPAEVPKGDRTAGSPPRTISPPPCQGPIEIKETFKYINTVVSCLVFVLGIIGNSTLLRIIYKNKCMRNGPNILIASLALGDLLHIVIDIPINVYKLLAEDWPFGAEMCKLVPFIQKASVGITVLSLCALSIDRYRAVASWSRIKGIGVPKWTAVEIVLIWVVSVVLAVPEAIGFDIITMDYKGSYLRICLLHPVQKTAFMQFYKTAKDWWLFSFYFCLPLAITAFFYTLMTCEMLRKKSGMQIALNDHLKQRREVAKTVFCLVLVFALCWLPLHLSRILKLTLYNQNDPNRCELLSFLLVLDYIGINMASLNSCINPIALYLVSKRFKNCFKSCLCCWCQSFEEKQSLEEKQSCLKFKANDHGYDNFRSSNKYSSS
Experimental: (§1) COS7 cells were plated in a 24-well format and transfected with 10 ul of Origene library DNA (Origene, human DNA library containing 20 k genes) per well with Fugene 6 Reagent. Two days later, cells were incubated with human or mouse PILRα-Ap supernatants for 45 min at room temperature (RT). Then cells were fixed with 4% PFA for 15 min at RT. After removing fixation buffer, cells were blocked with 100 mM Glycine in HBS (20 mM Hepes, PH7.2, 150 mM NaCl) for 15 min at RT. Cells were then rinsed and incubated in HBS for 90 min at 65° C. HBS was removed and Western Blue Substrate (Promega) was added and color was developed for 30 min to 1 hr.

[1] = target: T2, CLEC4G expressed on cells (human, UniProt Q6UXB4 1-293)
T2 construct: Clone of the Origene human cDNA library; also called C type lectin superfamily 4 member G
T2 sequence: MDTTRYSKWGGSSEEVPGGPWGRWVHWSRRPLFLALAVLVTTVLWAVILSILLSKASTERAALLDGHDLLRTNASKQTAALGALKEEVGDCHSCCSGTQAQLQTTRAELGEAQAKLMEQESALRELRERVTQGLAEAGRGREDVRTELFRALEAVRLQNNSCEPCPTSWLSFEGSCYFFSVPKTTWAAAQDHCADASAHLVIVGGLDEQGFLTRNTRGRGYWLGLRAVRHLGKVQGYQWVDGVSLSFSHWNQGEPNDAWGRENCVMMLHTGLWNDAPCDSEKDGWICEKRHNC
Experimental: as §1

MAG expressed on cells = target: T3, MAG expressed on cells (human, UniProt P20916 20-626)
T3 construct: Clone of the Origene human cDNA library; also called Myelin associated glycoprotein; SIGLEC4A
T3 sequence: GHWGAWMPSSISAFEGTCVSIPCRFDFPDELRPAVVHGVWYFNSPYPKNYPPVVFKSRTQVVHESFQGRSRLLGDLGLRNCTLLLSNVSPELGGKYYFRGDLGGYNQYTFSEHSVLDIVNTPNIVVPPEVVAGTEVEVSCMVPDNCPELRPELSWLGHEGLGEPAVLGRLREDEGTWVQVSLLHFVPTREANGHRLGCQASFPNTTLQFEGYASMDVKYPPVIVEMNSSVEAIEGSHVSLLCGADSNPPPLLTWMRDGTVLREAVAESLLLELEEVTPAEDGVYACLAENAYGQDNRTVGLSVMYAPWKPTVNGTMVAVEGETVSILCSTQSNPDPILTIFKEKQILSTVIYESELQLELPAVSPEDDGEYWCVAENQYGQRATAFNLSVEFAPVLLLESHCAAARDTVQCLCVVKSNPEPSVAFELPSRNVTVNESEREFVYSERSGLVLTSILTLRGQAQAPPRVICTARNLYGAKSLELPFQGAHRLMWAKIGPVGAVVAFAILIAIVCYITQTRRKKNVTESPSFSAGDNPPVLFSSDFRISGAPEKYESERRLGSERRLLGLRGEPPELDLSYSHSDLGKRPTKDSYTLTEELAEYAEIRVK
Experimental: as §1

[2] = target: T4, LRRTM4 expressed on cells (human, UniProt Q86VH4 31-590)
T4 construct: Clone of the Origene human cDNA library; also called Leucine rich repeat transmembrane neuronal 4
T4 sequence (Q86VH4 31-590 limits assumed): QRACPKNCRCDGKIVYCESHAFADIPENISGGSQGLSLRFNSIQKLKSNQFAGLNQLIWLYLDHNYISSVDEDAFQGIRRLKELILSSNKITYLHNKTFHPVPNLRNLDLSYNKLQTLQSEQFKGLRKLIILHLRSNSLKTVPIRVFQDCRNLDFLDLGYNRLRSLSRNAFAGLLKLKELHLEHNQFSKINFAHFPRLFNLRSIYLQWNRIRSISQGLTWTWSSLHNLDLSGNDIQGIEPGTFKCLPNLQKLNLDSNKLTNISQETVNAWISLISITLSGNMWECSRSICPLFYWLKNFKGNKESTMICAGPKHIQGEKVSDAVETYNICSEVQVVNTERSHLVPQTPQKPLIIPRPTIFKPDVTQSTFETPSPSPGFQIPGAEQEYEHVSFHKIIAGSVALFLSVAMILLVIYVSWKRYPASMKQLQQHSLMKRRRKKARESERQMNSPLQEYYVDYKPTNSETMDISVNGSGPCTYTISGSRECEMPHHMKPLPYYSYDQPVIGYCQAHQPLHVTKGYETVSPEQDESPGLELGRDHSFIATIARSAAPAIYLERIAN
Experimental: as §1

PTPRN expressed on cells = target: T5, PTPRN expressed on cells (human, UniProt Q16849 35-979)
T5 construct: Clone of the Origene human cDNA library; also called Protein tyrosine phosphatase receptor-type N
T5 sequence: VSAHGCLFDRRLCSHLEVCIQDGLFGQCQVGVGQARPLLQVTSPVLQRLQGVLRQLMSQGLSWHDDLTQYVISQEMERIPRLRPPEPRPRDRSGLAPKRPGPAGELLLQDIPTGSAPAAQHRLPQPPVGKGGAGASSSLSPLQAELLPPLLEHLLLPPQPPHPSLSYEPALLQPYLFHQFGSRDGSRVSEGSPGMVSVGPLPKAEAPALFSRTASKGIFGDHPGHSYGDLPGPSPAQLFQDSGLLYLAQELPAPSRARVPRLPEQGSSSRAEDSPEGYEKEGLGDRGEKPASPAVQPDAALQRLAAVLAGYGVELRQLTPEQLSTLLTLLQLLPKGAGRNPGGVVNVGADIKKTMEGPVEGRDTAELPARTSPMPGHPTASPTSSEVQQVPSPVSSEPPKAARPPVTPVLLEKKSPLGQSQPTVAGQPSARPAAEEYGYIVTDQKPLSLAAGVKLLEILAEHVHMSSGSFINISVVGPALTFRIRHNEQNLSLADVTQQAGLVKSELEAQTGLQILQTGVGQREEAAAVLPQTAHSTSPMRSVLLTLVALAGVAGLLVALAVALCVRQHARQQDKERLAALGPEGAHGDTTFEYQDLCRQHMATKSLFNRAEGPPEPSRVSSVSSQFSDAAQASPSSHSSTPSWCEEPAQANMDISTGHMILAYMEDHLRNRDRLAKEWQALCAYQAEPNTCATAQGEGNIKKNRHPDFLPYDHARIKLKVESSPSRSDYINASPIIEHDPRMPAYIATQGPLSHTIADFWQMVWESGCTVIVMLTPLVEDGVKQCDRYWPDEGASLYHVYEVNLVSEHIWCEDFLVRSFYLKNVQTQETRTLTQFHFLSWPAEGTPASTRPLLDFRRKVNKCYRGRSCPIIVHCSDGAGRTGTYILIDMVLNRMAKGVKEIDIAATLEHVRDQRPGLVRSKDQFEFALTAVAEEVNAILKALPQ
Experimental: as §1

WDR31 expressed on cells = target: T6, WDR31 expressed on cells (human, UniProt Q8NA23 1-367)
T6 construct: Clone of the Origene human cDNA library; also called WD repeat domain 31
T6 sequence (Q8NA23 other isoform, or with tags, fused parts or gaps): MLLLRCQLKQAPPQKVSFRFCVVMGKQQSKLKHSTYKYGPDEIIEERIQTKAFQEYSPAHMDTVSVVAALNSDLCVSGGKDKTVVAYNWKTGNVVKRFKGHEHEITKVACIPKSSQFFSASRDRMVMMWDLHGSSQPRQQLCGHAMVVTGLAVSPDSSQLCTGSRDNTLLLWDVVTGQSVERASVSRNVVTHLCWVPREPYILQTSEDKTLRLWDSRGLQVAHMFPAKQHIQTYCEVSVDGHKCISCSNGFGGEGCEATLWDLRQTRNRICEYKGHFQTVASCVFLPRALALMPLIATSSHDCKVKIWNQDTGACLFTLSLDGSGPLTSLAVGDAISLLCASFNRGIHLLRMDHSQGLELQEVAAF
Experimental: as §1

Measured: binding result

B1: hPILRα-AP (other)
chain: QPSGSTGSGPSYLYGVTQPKHLSASMGGSVEIPFSFYYPWELATAPDVRISWRRGHFHRQSFYSTRPPSIHKDYVNRLFLNWTEGQKSGFLRISNLQKQDQSVYFCRVELDTRSSGRQQWQSIEGTKLSITQAVTTTTQRPSSMTTTWRLSSTTTTTGLRVTQGKRRSDSWHISLET
notes: Used as culture supernatant; also called human PILRα-AP; Alkaline phosphatase (AP)-tagged PILRα construct; not shown: C-terminal alkaline phosphatase (AP) tag
binds: all assays above
